Article PMC11889175, “Molecular principles of redox-coupled sodium pumping of the ancient Rnf machinery” (Nature Communications, 2025)
Read-outs that look alike come from different tables or passages of the source.

T1: RnfC subunit of the Rnf complex from Acetobacterium woodii (Acetobacterium woodii, UniProt H6LC32 1-443)
T1 construct: rnf genes amplified from genomic DNA
T1 sequence: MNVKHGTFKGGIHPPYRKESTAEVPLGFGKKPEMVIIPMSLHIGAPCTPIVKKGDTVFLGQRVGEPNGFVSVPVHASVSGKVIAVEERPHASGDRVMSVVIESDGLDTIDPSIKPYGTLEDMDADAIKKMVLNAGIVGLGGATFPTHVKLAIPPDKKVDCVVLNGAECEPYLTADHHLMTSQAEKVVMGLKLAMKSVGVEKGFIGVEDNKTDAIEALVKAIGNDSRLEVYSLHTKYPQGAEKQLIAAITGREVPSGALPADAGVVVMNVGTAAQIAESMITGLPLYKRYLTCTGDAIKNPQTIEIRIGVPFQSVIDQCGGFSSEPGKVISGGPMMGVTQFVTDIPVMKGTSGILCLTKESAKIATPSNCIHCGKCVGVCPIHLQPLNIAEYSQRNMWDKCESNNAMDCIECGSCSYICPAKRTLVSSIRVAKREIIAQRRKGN

B1: RnfB subunit of the Rnf complex from Acetobacterium woodii (natural protein)
chain: MLNAILVPVGILGVFGLIFGIGLAIAAKVFEVYEDPRVPLVRAALPGANCGGCGLPGCDALAANIVGGSAAIDACPVGGASCAAAVAEIMGMEAGSAVKKVATVICQGTCETAPNRAEYYGEMDCREAMIASGGSKGCRYGCLGYGTCKAVCPFDAIVIGEDGLPKVDPEKCTSCGKCVEACPKSIMTLVPEAQEVIVKCHNFDKGKIARLSCTTACIACGACVKACRFDAITVENNCAKIDYDKCRQCYECVDKCPMNCISGDVEYGKSTAYIIEENCIACGLCAKNCPVNAITGEIKKPPYVIDHDMCIGCGICFDKCRKSAIEMRPNKTK
notes: RnfB, membrane-anchored poly-ferredoxin subunit of the Rnf complex with eight [4Fe4S] clusters, Acetobacterium woodii; rnf genes amplified from genomic DNA; B8-domain is residues 30-100 of RnfB; also called poly-ferredoxin subunit RnfB
B2: RnfD subunit of the Rnf complex from Acetobacterium woodii (natural protein)
chain: MNELNLTVSSSPHIRAKHSTASIMQNVIIALLPALAVAGYVFGLWALALVAICVISSVATEAVIQKLLKKPITVNDWSAVVTGVLLAFNLPINAPWWIGVVGSVFAIAIVKQCFGGLGQNFINPALAARAFLLASWPGHMTSTAYIPLTDTVTTATPLALLKAGETGSMPSTLDLFTGLNGVYGCIGEISALALLIGGLYLIYKGIISWRIPTIYLLTIAIFALLVGQDPIVHMVSGGVMLGAFFMATDYASSPVTAKGQIIYAIGCGLITMIIRLYGGYPEGCSYSILLMNVATPLIERFTKERIYGVTKIKKEAKA
modifications: FMN covalently linked to T156
notes: RnfD, integral membrane subunit of the Rnf complex with ten transmembrane helices (riboflavin and covalent FMN), Acetobacterium woodii; rnf genes amplified from genomic DNA
B3: RnfA subunit of the Rnf complex from Acetobacterium woodii (natural protein)
chain: MTLIFIMISAIFVNNFVLSRFLGICPFLGVSKQVETAVGMGVAVTFVMALASAITYVVQYAILDPLSLGYLQTIAFILIIAALVQLVEMIIKKSSPSLYQALGVYLPLITTNCAVLGVALINIQNEYNFIETIFNGVGAALGFTLAIVLFAGIRERLETSAVPKALEGFPIALLTAGLMAIAFLGFSGMKL
notes: RnfA, integral membrane subunit of the Na+-pumping Rnf complex, Acetobacterium woodii; rnf genes amplified from genomic DNA
B4: RnfG subunit of the Rnf complex from Acetobacterium woodii (natural protein)
chain: METKEKVQIDWKVVFKLGLILFVISAVAACALALTNYVTAGTIEEMNVQTNTVARQEVLPKAADFEAVPAKDVEKIASEIGMEKPEELLEVYIGKSNGEVVGYTVKTGPTSGYAGEVQVLTGISADGVITGITIIKSNETPGLGAKASGVWNDQFTGKSAKEELVVVKGTTKEGSNEIQAITGSTITSKAVTSGVNMSIQVYQNLSK
modifications: FMN covalently linked to T185
notes: RnfG, membrane-anchored periplasmic flavoprotein subunit of the Rnf complex, Acetobacterium woodii; rnf genes amplified from genomic DNA; The complex was captured on Ni-NTA by this tag; no cleavage step is described; not shown: His-Tag, C-terminal, kept
B5: RnfE subunit of the Rnf complex from Acetobacterium woodii (natural protein)
chain: MNFMKNLTRGIIRENPTFVLVLGMCPTLAVTTSAINGMGMGLATMLVLIGSNVAISALRKVIPDNIRIPAFVVVIASFVTIVGMLMKAYVPALDAALGIFIPLIVVNCIILARAEAFAFSNGIADSFADAVGMGLGFTLALTILGSIREILGAGSIFGFSLFGAAYEPVLLMILPPGAFLTLGLLIGLINWKTKKA
notes: RnfE, integral membrane subunit of the Rnf complex, homologous to RnfA (29% identity), Acetobacterium woodii; rnf genes amplified from genomic DNA

Experiments:
[1] = biological target: T2, Rnf complex (NADH / FMN site in RnfC) (Acetobacterium woodii, UniProt H6LC32); assay: cryo-EM structure, […] Å; format: binding; parameters: whole six-subunit complex, His-tag at C-terminus of RnfG, plasmid-produced in A. woodii delta-rnf, DDM-solubilised, Ni-NTA and gel filtration, anoxic; with Na(+)-translocating ferredoxin:NAD(+) oxidoreductase complex subunit B; Na(+)-translocating ferredoxin:NAD(+) oxidoreductase complex subunit D; Na(+)-translocating ferredoxin:NAD(+) oxidoreductase complex subunit G; Na(+)-translocating ferredoxin:NAD(+) oxidoreductase complex subunit E; Na(+)-translocating ferredoxin:NAD(+) oxidoreductase complex subunit A; conditions: 500 µM NADH, 10 min, anoxic; stacks on non-covalent FMN of RnfC
[2] = biological target: T2, Rnf complex (NADH / FMN site in RnfC); conditions: 30 µM ferredoxin pre-reduced by CO and CODH/ACS; 20 mM Tris/HCl, 20 mM NaCl, pH 7.2, 30 °C
[3] = biological target: Rnf complex (riboflavin and FMN^D sites in RnfD) (Acetobacterium woodii, UniProt H6LC31)
[4] = biological target: Rnf complex (FMN^G site in RnfG) (Acetobacterium woodii, UniProt H6LC30); conditions: covalent, linked to T185 of RnfG; 5 µM FMN in purification buffer
[5] = biological target: T1, RnfC subunit of the Rnf complex from …; assay: cryo-EM structure; Rnf complex purified in DDM, grids prepared under strictly anoxic conditions; NADH-reduced (3.3 Å), Fd-reduced (2.8 Å; state with B8 closer to the membrane 2.9 Å) and apo (3.0 Å) states, all with the same overall organisation; conditions: both partners purified
[6] = biological target: B5; assay: as above; conditions: both partners purified
[7] = biological target: B4; assay: as above; conditions: both partners purified
[8] = biological target: B1; assay: as above; conditions: both partners purified
[9] = biological target: B2; assay: as above; conditions: both partners purified

Q: For `NC(=O)C1=CN([C@@H]2O[C@H](COP(=O)(O)OP(=O)(O)OC[C@H]3O[C@@H](n4cnc5c(N)ncnc54)[C@H](O)[C@@H]3O)[C@@H](O)[C@H]2O)C=CC1` [NADH], which “cryo-EM structure, 3.3 Å” value [1] is on record?
A: The value was “we observed a well-resolved density for a bound NADH molecule”.

Q: For `NC(=O)c1ccc[n+]([C@@H]2O[C@H](COP(=O)(O)OP(=O)(O)OC[C@H]3O[C@@H](n4cnc5c(N)ncnc54)[C@H](O)[C@@H]3O)[C@@H](O)[C@H]2O)c1` [NAD^+], which “ferredoxin:NAD oxidoreductase assay” value [2] is on record?
A: The value was “catalysed the ferredoxin-dependent reduction of NAD^+”.

Q: What does the source list for `Cc1cc2nc3c(=O)[nH]c(=O)nc-3n(C[C@H](O)[C@H](O)[C@H](O)COP(=O)(O)O)c2cc1C` [flavin mononucleotide]?
A: cryo-EM structure, 2.8-3.3 Å ([3]; covalent, linked to T156 of RnfD, 5 µM FMN in purification buffer): RnfD contains an FMN^D cofactor covalently linked to T156^RnfD; cryo-EM structure, 2.8-3.3 Å [4]: covalently binds FMN^G via T185^RnfG in its antiparallel βαβ-fold

Q: `Cc1cc2nc3c(=O)[nH]c(=O)nc-3n(C[C@H](O)[C@H](O)[C@H](O)CO)c2cc1C` [riboflavin] was tested. Which “cryo-EM structure, 2.8-3.3 Å” value ([3]; pocket of RnfD connected to cytoplasmic side, hydrogen bonds to D249 and N123 of RnfD) did it give?
A: Its value is “RnfD binds the redox cofactor riboflavin (RBF)”.

Q: Does B1 bind [5]?
A: Result: binds

Q: Does B2 bind [5]?
A: Result: binds

Q: Which results are given for B3?
A: binding result [6]: binds; binding result [7]: binds

Q: Does B4 bind [8]?
A: Result: binds

Q: Does B4 bind [9]?
A: Result: binds

Q: Does B5 bind [7]?
A: Result: binds
